Article PMC2834593, “NMR characterisation of the minimal interacting regions of centrosomal proteins 4.1R and NuMA1: effect of phosphorylation” (BMC Biochemistry, 2010)

Target: T1, 4.1R-CTD64 (last 64 amino acids of the C-terminal domain of human protein 4.1R) (human, 15N labelled)
T1 construct: protein 4.1R, human, last 64 amino acids (part of the C-terminal domain, CTD); Cloned with NdeI into a modified pET15b with a TEV site; also called 4.1R-CTD64 subdomain; 64 amino acids subdomain
T1 chain: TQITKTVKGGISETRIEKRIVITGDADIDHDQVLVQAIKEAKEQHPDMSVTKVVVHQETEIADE
Experiment: NMR titration; 15N labelled 4.1R-CTD64 (0.1 mM, 100 mM Na2HPO4, 90% H2O/10% D2O) titrated with NuMA1 peptide up to 20:1, followed by 1H-15N HSQC, pH 4.9, 25°C; chemical shift perturbation analysis
Conditions: both partners purified

binding result: binds
B1: NuMA1 interacting peptide (N1I), residues 1785-1810 of NuMA1 (peptide)
peptide: Ac-DSGRKTRSARRRTTQIINITMTKKLD-NH2
notes: also called NI1; non-phosphorylated NuMA peptide; source: synthetic peptide, bought: Caslo (Denmark)
